Positions count from the first letter of the chain named.

These results are taken from patent US10941197 (dated 2021).

T1: cyno OSM (cynomolgus)
T1 chain: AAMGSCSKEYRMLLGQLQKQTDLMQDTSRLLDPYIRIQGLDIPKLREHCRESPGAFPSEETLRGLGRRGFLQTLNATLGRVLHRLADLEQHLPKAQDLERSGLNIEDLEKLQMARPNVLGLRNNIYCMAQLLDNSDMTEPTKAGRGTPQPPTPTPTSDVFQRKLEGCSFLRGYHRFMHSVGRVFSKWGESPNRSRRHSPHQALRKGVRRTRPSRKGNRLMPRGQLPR

T2: human OSM (human)
T2 chain: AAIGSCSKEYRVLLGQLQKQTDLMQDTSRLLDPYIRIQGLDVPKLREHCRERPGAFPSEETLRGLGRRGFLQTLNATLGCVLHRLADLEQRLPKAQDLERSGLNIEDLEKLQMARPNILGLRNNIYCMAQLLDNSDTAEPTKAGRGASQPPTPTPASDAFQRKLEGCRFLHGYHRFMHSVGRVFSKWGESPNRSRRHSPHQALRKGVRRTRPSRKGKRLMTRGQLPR

B1: M71 (designed binder)
chain 1: EVQLVQSGAEVKKPGESLKISCKGSGYSFTSYWISWVRQMPGKGLEWMGIIYPGDSYTRYSPSFQGQVTISADKSISTAYLQWSSLKASDTAMYYCARVPVSPAYLDY
chain 2: not shown
B2: M55 (designed binder)
chain 1: B1 chain 1 with V99G, P100S, S102F, P103E, L106F
chain 2: not shown
B3: M54 (designed binder)
chain 1: B1 chain 1 with V99G, P100S, S102F, P103E, L106F
chain 2: not shown
B4: M69 (designed binder)
chain 1: B1 chain 1
chain 2: not shown
B5: M42 (designed binder)
chain 1: B1 chain 1 with V99G, P100S, S102F, P103E, L106F
chain 2: not shown
B6: M64 (designed binder)
chain 1: B1 chain 1
chain 2: not shown

One experiment concerns the target T1, cyno OSM. Briefly: SPR. A general note: In SPR one partner is held on a chip, and binding of the other changes the refractive index at the surface.
For orientation: Kd means the free concentration of one partner at which half of the binding sites on the other are occupied at equilibrium, for simple one-to-one binding. High values mean lower affinity, low ones higher affinity. Regarding B1, binding was characterised by a dissociation constant (Kd) of 0.108 nM.
B2: the Kd worked out at 0.058 nM.
On the same count and under the same terms, next, B3: 0.057 nM.
On the same count and under the same terms, next, B4: 0.062 nM; B5: 0.516 nM; B6: 0.023 nM.

The target in the next experiment is T2, human OSM. Briefly: SPR.
Consider B1, for which the Kd is 0.105 nM.
On the same count and under the same terms, next, B2: 0.054 nM; B3: 0.053 nM.
As for B4, the affinity, expressed as Kd, was 0.045 nM.
Same read-out and setting: for B5 the value was 0.484 nM; for B6, 0.095 nM.
